Reference: paper PMC5966876

biological target: cyclin T1 (UniProt O60563); assay: co-immunoprecipitation (anti-Flag IP, western blot quantification); details: 293T cells, lysed at 48 h posttransfection; 12% SDS-PAGE; parent: est. 100; read off a plot
Sequence of UniProt O60563 (O60563 whole entry): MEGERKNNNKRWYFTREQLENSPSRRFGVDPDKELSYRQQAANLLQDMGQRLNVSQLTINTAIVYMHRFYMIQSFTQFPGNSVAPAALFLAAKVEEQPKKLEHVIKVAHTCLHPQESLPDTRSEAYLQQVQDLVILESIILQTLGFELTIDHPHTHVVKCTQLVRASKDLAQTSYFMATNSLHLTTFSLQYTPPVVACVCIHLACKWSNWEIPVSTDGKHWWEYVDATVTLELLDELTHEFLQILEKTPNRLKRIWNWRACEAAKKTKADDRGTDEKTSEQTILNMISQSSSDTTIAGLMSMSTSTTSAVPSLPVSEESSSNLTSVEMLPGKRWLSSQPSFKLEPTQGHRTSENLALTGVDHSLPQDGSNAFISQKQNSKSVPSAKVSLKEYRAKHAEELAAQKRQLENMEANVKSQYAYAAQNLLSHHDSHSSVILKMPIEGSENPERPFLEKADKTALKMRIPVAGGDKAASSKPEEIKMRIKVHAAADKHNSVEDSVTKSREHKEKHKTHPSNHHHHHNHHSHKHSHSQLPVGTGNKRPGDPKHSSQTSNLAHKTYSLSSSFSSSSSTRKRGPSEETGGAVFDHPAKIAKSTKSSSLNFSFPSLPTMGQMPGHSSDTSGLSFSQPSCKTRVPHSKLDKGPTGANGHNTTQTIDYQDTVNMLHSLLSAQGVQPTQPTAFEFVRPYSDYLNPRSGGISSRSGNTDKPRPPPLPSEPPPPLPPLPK

Compared with Flag-tagged HIV-1 Tat (WT) S46D, Flag-tagged HIV-1 Tat (WT) S46A is higher in percent of parent: 22 % of WT Tat for the first, 45 % of WT Tat for the second.

First: Flag-tagged HIV-1 Tat (WT) S16A
Second: Flag-tagged HIV-1 Tat (WT) S16D
The percent of parent of the first is higher: 48 % of WT Tat for the first, 20 % of WT Tat for the second.
